{
  "source": "patent US20140178364A1",
  "target": "interleukin 3 receptor α (IL-3Rα) chain (human) (UniProt P26951)",
  "sequence (P26951 20-378)": "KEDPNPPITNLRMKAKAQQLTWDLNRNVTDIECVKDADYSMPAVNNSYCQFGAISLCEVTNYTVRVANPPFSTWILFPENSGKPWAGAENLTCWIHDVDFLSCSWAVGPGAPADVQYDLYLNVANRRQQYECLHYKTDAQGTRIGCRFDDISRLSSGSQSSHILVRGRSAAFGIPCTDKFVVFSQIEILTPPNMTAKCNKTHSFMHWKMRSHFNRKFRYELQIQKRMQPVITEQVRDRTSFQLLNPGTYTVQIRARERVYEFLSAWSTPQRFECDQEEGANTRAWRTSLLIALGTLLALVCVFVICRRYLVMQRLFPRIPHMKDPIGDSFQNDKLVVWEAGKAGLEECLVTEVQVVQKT",
  "test": "cell-based or functional assay",
  "data": [
    {"substance": "chimeric version of 7G3 with a human IgG1 constant domain (ch7G3) (antibody)", "values": [
      {"measurement": "pDCs (% of total cells remaining in culture), 4 h, 10 µg/ml antibody on human PBMC (% of total cells)", "value": 0.1},
      {"measurement": "pDCs (% of total cells remaining in culture), 24 h, 10 µg/ml antibody on human PBMC (% of total cells)", "value": 0.02},
      {"measurement": "pDCs (% of total cells remaining in culture), 48 h, 10 µg/ml antibody on human PBMC (% of total cells)", "value": 0.005}
    ]}
  ]
}
